These results are taken from patent US20060088549A1, “Chimeric virus vaccine” (priority 2004, published 2006).

Entries after “also recorded” stand apart in the source; their conditions may differ.

One test relates to 2F5. The following applies: cited from earlier work; for binding/affinity to 2F5 relative to the LELDKWASL peptide: Tian, 2003.
Test [1] concerns the target HRV14:HIV-1 gp41 […] chimeric virus 22-AN15000-8. The test can be described thus: cell-based or functional assay.
In test [2] the target is HRV14:HIV-1 gp41 […] chimeric virus 44-B4000-13. The test can be described thus: cell-based or functional assay.
For test [3], the target named is HRV14:HIV-1 gp41 […] chimeric virus 14-B128-23. The test can be described thus: cell-based or functional assay.
Test [4] has as its target HRV14:HIV-1 gp41 […] chimeric virus 44-BN30000-9. The test can be described thus: cell-based or functional assay.
Test [5] deals with HRV14:HIV-1 gp41 […] chimeric virus 64-B256-2. Kind of test: cell-based or functional assay.
Test [6] concerns the target HRV14:HIV-1 gp41 […] chimeric virus 64-C16-2. Kind of test: cell-based or functional assay.
Test [7] addresses HRV14:HIV-1 gp41 […] chimeric virus 44-B256-2. The test can be described thus: cell-based or functional assay.
In test [8] the target is HRV14:HIV-1 gp41 […] chimeric virus 44-B64-14. The test can be described thus: cell-based or functional assay.
In test [9] the target is HRV14:HIV-1 gp41 […] chimeric virus 14-C512-3. Kind of test: cell-based or functional assay.
The target in test [10] is HRV14:HIV-1 gp41 […] chimeric virus 44-C4000-4 (human rhinovirus type 14) (UniProt P03303). The test can be described thus: cell-based or functional assay.
For test [11], the target named is HRV14:HIV-1 gp41 […] chimeric virus 14-C4000-14. Kind of test: cell-based or functional assay.
Test [12] concerns the target HRV14:HIV-1 gp41 […] chimeric virus 14-B128-12. Kind of test: cell-based or functional assay.
For test [13], the target named is HRV14:HIV-1 gp41 […] chimeric virus 14-C1000-1. Kind of test: cell-based or functional assay.
For test [14], the target named is HRV14:HIV-1 gp41 […] chimeric virus 64-B32-4. The test can be described thus: cell-based or functional assay.
The target of test [15] is HRV14:HIV-1 gp41 […] chimeric virus 14-C4000-1 (human rhinovirus type 14) (UniProt P03303). The test can be described thus: cell-based or functional assay.
Test [16] concerns the target HRV14:HIV-1 gp41 […] chimeric virus 24-AN15000-3. Kind of test: cell-based or functional assay.
Test [17] addresses HRV14:HIV-1 gp41 […] chimeric virus 44-BN30000-2. The test can be described thus: cell-based or functional assay.
Test [18] deals with HRV14:HIV-1 gp41 […] chimeric virus 14-B128-22. Kind of test: cell-based or functional assay.
The target in test [19] is HRV14:HIV-1 gp41 […] chimeric virus 64-B32-3. Kind of test: cell-based or functional assay.
The target in test [20] is HRV14:HIV-1 gp41 […] chimeric virus 44-B64-12. The test can be described thus: cell-based or functional assay.
In test [21] the target is HRV14:HIV-1 gp41 […] chimeric virus 64-C32-3. The test can be described thus: cell-based or functional assay.
The target in test [22] is HRV14:HIV-1 gp41 […] chimeric virus 14-B64-5. Kind of test: cell-based or functional assay.
Test [23] concerns the target HRV14:HIV-1 gp41 […] chimeric virus 44-BN7500-4. The test can be described thus: cell-based or functional assay.
Test [24] has as its target HRV14:HIV-1 gp41 […] chimeric virus 14-C512-2. Kind of test: cell-based or functional assay.
In test [25] the target is HRV14:HIV-1 gp41 […] chimeric virus 44-B64-4. Kind of test: cell-based or functional assay.
For test [26], the target named is Biotin-conjugated …-NH2 (HIV-1). The test can be described thus: direct ELISA, IgG on immobilized biotinylated …. The following applies: scale: reciprocal dilution of 1 mg/ml IgG at OD450 of 0.5. (In an ELISA, binding on a coated surface is turned into a signal by an enzyme label.)

For LELDKWASL, the “binding to 2F5 in an ELISA relative to the shorter ELDKWAS peptide” value in the test on 2F5 (Tian et al., 2002) is reported as ~100 fold.

Ac-CENEQELLELDKWASL-NH2 [Linear-1]: the “binding/affinity to 2F5 relative to the LELDKWASL peptide” value in the test on 2F5 is on record as “higher affinities to 2F5”.

On to “Ac-CNEQELLEKDKWADL-NH2 (lactam (positions not given here); also: lactam bridge between underlined K and D, places not given here) [Lac-1, constrained peptide with a lactam bridge between K and D residues]”, for which, in the test with 2F5, the “binding/affinity to 2F5 relative to the LELDKWASL peptide” value is “higher affinities to 2F5; also recorded: two times more tightly”.

As to human mAb 2F5 (antibody), the 2F5 IC50, microtiter neutralization assay in test [1] was 8.2 µg/mL; in test [2], 0.24 µg/mL; in [3] it was 5.9 µg/mL; in test [4] it was 0.02 µg/mL; in [5], 0.23 µg/mL; in test [6], 0.07 µg/mL. Further, the 2F5 IC50, microtiter neutralization assay was found to be 0.31 µg/mL in [7]; 0.16 µg/mL in test [8]; 3 µg/mL in test [9]; 0.66 µg/mL in [10]; 0.64 µg/mL in test [11]; 0.49 µg/mL in test [12]. In addition, the 2F5 IC50, microtiter neutralization assay in [13] turned out to be 1.5 µg/mL; in [14], 0.49 µg/mL; in test [15], 0.98 µg/mL; in test [16], 1.5 µg/mL; in test [17], 0.01 µg/mL; in test [18], 0.57 µg/mL. The 2F5 IC50, microtiter neutralization assay in test [19] came to 0.05 µg/mL; in test [20] it was 0.21 µg/mL; in test [21], 0.05 µg/mL; in [22], 0.29 µg/mL; in [23], 0.01 µg/mL; in [24], 0.05 µg/mL. In test [25], this substance returned a 2F5 IC50, microtiter neutralization assay of 0.06 µg/mL. The same substance gave a … binding in [26] of 2400.
